# From publication PMC11303751, “Novel enzymatic route to the synthesis of C-8 hydroxyflavonoids including flavonols and isoflavones” (Scientific Reports, 2024)
# B1: fdeE (Herbaspirillum seropedicae SmR1) (protein)
# chain: MTLAAQRILIIGGGFSGMSAAIDLRRRGAQVDLVELDAQWRNYGAGISLGPATLRALKQLGVLEAFLREGAAGDGVRLCLPHGPQVAELPTPRLASPDVPGGGAILRPVLARILADATRAAGADVRLGCTFSAVREVGHKVEVDFTDGQTRRYDLVIGADGLYSKLRMHLFPHAPKPRYSGQAVWRAVLPRPQEIVTCTMWMGPRIKPGVNPVSKDEMYLFVTEPRPVNEHVDPTTFVSHLRGLLEEFSAPVLKTIREQLDDNARIIFRPLEGLLLPRPWYQGRVVLIGDAVHATTPHLASGACIGIEDALVLADELERHGTVPQALAAFEERRWERCRMVVENSARLGEIEVEGGDKDEHSRIMRASHAALVQPI
# notes: codon-optimised ORF in pRhaBAD_12, expressed in E. coli BL21(DE3), purified by Ni IMAC (HisTrap), desalted
# Experiments:
# [1] = target: T1, fdeE (Herbaspirillum seropedicae, UniProt D8J0W9); assay: UV-Vis spectrum of purified enzyme; type: binding; conditions: FAD co-purified with the enzyme; none added
# T1 construct: gene Hsero_1007; codon-optimised ORF in pRhaBAD_12, expressed in E. coli BL21(DE3), purified by Ni IMAC (HisTrap), desalted
# T1 sequence (D8J0W9 1-376): B1 chain
# [2] = substrate: O=c1cc(-c2ccc(O)cc2)oc2cc(O)cc(O)c12; assay: purified protein; conditions: 1 mM NADPH, GDH/glucose regeneration, 25 mM DTT, 25 mM sodium phosphate pH 7.5, initial substrate 0.05 mM, from a single progress curve
# [3] = substrate: O=c1cc(-c2ccc(O)c(O)c2)oc2cc(O)cc(O)c12; assay: UPLC-DAD product-formation progress curve; type: biochemical, Herbaspirillum seropedicae; conditions: 1 mM NADPH, GDH/glucose regeneration, 25 mM DTT, 25 mM sodium phosphate pH 7.5, initial substrate 0.05 mM, from a single progress curve
# Text: (§1) UPLC-DAD product-formation progress curve on fdeE
# [4] = substrate: O=c1cc(-c2ccccc2)oc2cc(O)cc(O)c12; assay: UPLC-DAD product-formation progress curve; type: biochemical, Herbaspirillum seropedicae; conditions: 1 mM NADPH, GDH/glucose regeneration, 25 mM DTT, 25 mM sodium phosphate pH 7.5, initial substrate 0.05 mM, from a single progress curve
# Text: as §1
# [5] = substrate: O=C1C[C@@H](c2ccc(O)cc2)Oc2cc(O)cc(O)c21; assay: UPLC-DAD product-formation progress curve; type: biochemical, Herbaspirillum seropedicae; conditions: 1 mM NADPH, GDH/glucose regeneration, 25 mM DTT, 25 mM sodium phosphate pH 7.5, initial substrate 0.05 mM, from a single progress curve
# Text: as §1
# [6] = substrate: O=c1c(O)c(-c2ccc(O)c(O)c2)oc2cc(O)cc(O)c12; assay: UPLC-DAD product-formation progress curve; type: biochemical, Herbaspirillum seropedicae; conditions: 1 mM NADPH, GDH/glucose regeneration, 25 mM DTT, 25 mM sodium phosphate pH 7.5, initial substrate 0.05 mM, from a single progress curve
# Text: as §1
molecule,measurement,setting,value
Cc1cc2nc3c(=O)[nH]c(=O)nc-3n(C[C@H](O)[C@H](O)[C@H](O)COP(=O)(O)OP(=O)(O)OC[C@H]3O[C@@H](n4cnc5c(N)ncnc54)[C@H](O)[C@@H]3O)c2cc1C [FAD],UV-Vis spectrum of purified enzyme,[1],UV–Vis spectrium of purified fdeE with absorption spectra characteristic for FAD absorbance
B1,Km,[2],20.2 µM
same,Vmax,[2],4.02 µM/min
same,kcat,[2],0.0532 s⁻¹
same,kcat/Km,[2],2630 M⁻¹ s⁻¹
same,Km,[3],51.8 µM
same,Vmax,[3],6.12 µM/min
same,kcat,[3],0.0811 s⁻¹
same,kcat/Km,[3],1570 M⁻¹ s⁻¹
same,Km,[4],431 µM
same,Vmax,[4],88.2 µM/min
same,kcat,[4],1.17 s⁻¹
same,kcat/Km,[4],2720 M⁻¹ s⁻¹
same,Km,[5],0.422 µM
same,Vmax,[5],2.09 µM/min
same,kcat,[5],0.0277 s⁻¹
same,kcat/Km,[5],65500 M⁻¹ s⁻¹
same,Km,[6],14.9 µM
same,Vmax,[6],0.512 µM/min
same,kcat,[6],0.00678 s⁻¹
same,kcat/Km,[6],450 M⁻¹ s⁻¹
